# Source: article PMC12386978 (2025)
# B1: NLuc-mCRY1 (wild-type) [mouse (printed as mCRY1)] / CLuc-BMAL1 [not stated] (parent complex)
# chain 1: MGVNAVHWFRKGLRLHDNPALKECIQGADTIRCVYILDPWFAGSSNVGINRWRFLLQCLEDLDANLRKLNSRLFVIRGQPADVFPRLFKEWNITKLSIEYDSEPFGKERDAAIKKLATEAGVEVIVRISHTLYDLDKIIELNGGQPPLTYKRFQTLVSKMEPLEMPADTITSDVIGKCMTPLSDDHDEKYGVPSLEELGFDTDGLSSAVWPGGETEALTRLERHLERKAWVANFERPRMNANSLLASPTGLSPYLRFGCLSCRLFYFKLTDLYKKVKKNSSPPLSLYGQLLWREFFYTAATNNPRFDKMEGNPICVQIPWDKNPEALAKWAEGRTGFPWIDAIMTQLRQEGWIHHLARHAVACFLTRGDLWISWEEGMKVFEELLLDADWSINAGSWMWLSCSSFFQQFFHCYCPVGFGRRTDPNGDYIRRYLPVLRGFPAKYIYDPWNAPEGIQKVAKCLIGVNYPKPMVNHAEASRLNIERMKQIYQQLSRYRGLGLLASVPSNSNGNGGLMGYAPGENVPSCSSSGNGGLMGYAPGENVPSCSGGNCSQGSGILHYAHGDSQQTHSLKQGRSSAGTGLSSGKRPSQEEDAQSVGPKVQRQSSN
# chain 2: not shown
# Variants of: B1
# Test: split-luciferase complementation assay; HEK293T cells, n = 3; read off a plot
row,response,Variant
1,~3900,chain 1 K151R
2,~3200,chain 1 K151Q
